Measurements published in patent US20120244164A1 (published 2012).
Blank lines part the entries; values can stand above or below the binder they belong to.

How the values were obtained:
[1] = biological target: T1, recombinant human c-Met/Fc chimera (R&D systems) (human); assay: HGF/c-MET competition Alphascreen: 100 pM biotinylated hHGF, 100 pM c-MET/Fc
T1 construct: R&D Systems 358-MT/CF, expressed in NS0 cells; also called hc-Met/Fc; hu c-Met/Fc
Method: (§1) To this mixture the anti-human Fc conjugated acceptor beads and c-MET/Fc (100 pM final concentration) were added and incubated for 2 hours at RT. Next, streptavidin donor beads were added and the mixture was incubated for 1 additional hour. Fluorescence was measured by reading plates on the EnVision Multilabel Plate Reader using an excitation wavelength of 680 nm and an emission wavelength of 520 nm.

[2] = biological target: T1, recombinant human c-Met/Fc chimera (R&D …); assay: HGF/c-MET competition Alphascreen; reference 5D5 Fab v2
Method: as §1

[3] = biological target: T2, Human c-Met (human, UniProt P08581 25-1390); assay: cell-based or functional assay
[4] = biological target: T2, Human c-Met; assay: cell-based or functional assay; remark: listed apart in the source
[5] = biological target: T2, Human c-Met; assay: cell-based or functional assay; remark: listed apart in the source
[6] = biological target: T1, recombinant human c-Met/Fc chimera (R&D …); assay: HGF-competition Alphascreen: biotinylated hHGF, human c-Met/Fc

T2 sequence (P08581 25-1390 limits assumed): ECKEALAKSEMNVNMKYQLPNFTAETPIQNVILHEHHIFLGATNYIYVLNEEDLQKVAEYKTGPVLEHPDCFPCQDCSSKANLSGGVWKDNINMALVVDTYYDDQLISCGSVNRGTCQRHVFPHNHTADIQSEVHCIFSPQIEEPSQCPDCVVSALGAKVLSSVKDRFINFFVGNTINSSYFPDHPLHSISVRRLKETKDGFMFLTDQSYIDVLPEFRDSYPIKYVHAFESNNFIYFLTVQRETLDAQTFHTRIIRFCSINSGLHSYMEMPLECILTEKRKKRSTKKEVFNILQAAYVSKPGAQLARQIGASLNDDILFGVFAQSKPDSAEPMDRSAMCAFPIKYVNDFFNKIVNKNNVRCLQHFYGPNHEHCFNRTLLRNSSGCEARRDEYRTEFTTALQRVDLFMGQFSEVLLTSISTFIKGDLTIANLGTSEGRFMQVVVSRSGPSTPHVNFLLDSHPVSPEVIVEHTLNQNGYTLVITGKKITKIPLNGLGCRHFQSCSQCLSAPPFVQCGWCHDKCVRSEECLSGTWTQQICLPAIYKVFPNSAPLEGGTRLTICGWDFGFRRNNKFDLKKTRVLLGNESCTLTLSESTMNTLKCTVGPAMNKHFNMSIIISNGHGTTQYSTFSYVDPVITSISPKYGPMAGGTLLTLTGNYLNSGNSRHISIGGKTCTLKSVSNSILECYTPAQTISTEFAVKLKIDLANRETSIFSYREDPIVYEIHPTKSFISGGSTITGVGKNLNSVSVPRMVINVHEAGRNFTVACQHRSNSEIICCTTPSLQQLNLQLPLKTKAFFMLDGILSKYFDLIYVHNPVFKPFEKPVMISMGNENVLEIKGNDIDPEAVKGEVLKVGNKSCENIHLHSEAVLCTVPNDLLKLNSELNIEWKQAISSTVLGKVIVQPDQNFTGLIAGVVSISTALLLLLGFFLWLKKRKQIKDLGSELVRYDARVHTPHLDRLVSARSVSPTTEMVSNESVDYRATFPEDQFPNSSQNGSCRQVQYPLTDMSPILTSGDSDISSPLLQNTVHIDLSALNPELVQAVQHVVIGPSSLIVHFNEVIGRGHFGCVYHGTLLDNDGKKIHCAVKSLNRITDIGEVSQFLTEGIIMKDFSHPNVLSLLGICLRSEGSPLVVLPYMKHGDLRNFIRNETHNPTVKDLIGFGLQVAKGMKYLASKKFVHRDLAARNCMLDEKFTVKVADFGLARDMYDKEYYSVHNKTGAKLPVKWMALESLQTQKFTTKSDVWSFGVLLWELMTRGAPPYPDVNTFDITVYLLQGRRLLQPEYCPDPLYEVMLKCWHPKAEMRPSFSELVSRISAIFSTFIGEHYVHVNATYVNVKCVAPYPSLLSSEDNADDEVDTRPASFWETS
T1 sequence (chain, as listed by the source mutant limits assumed): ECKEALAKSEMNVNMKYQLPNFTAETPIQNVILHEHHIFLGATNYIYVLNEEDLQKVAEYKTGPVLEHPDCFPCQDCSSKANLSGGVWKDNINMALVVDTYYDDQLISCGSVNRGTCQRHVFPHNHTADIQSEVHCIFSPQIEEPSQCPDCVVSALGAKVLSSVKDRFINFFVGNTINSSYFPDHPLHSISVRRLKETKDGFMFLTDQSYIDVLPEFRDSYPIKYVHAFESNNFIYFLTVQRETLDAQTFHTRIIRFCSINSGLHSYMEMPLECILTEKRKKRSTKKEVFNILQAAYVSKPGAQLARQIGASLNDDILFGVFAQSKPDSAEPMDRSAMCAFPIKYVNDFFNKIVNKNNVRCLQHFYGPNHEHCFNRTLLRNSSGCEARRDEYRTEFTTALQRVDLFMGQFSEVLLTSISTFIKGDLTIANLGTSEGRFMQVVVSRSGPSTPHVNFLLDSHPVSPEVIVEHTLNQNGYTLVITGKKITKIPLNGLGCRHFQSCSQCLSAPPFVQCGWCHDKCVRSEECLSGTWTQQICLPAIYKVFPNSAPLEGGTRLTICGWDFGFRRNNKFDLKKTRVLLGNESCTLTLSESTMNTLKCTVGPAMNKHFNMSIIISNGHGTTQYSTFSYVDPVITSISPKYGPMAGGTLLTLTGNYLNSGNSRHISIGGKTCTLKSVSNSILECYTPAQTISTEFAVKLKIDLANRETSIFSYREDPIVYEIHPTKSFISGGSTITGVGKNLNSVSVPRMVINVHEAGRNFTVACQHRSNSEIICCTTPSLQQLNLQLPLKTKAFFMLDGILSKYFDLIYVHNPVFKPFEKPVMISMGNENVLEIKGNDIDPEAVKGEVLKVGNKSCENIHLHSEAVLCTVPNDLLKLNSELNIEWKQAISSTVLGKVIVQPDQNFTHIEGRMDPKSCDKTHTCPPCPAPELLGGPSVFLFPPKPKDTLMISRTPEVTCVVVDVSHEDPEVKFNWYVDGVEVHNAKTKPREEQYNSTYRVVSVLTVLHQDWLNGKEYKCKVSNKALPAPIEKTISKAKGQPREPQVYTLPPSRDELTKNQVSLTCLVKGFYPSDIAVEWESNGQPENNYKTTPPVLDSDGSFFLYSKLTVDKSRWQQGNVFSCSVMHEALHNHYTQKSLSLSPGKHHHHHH

IC50 [1]: 0.066 nM | fold improved potency against 5D5 Fab v2 [2]: > 5 fold | IC50, cMET phosphorylation assay, A549 cells, +HSA [3]: 4.2 nM | IC50, cMET phosphorylation assay, A549 cells, -HSA [3]: 5.41 nM | fold improved potency against 5D5 Fab v2, cMET phosphorylation assay [4]: ~2 fold
B1: A007901219 (A00790105-9GS-Alb23) (bispecific antibody)
chain: DVQLVESGGGLVQPGGSLRLSCAASGFILDYYAIGWFRQAPGKEREGVLCIDASDDITYYADSVKGRFTISRDNSKNTVYLQMNSLRPEDTAVYYCATPIGLSSSCLLEYDYDYWGQGTLVTVSSGGGGSGGGSEVQLLESGGGLVQPGGSLRLSCAASGFTFRSFGMSWVRQAPGKGPEWVSSISGSGSDTLYADSVKGRFTISRDNSKNTLYLQMNSLRPEDTAVYYCTIGGSLSRSSQGTLVTVSS
notes: also called A007901219 (Alb23)

IC50, c-Met phosphorylation [5]: 3.97 nM | IC50, proliferation assay [5]: 1.37 nM | IC50 [6]: 0.072 nM
B2: A007901222 (bispecific antibody)
chain: DVQLVESGGGLVQPGGSLRLSCAASGFILDYYAIGWFRQAPGKEREGVLCIDASDDITYYADSVKGRFTISRDNSKNTVYLQMNSLRPEDTAVYYCATPIGLSSSCLLEYDYDYWGQGTLVTVSSGGGGSGGGSEVQLLESGGGLVQPGGSLRLSCAASGFTFRSFGMSWVRQAPGKGPEWVSSISGSGSDTLYADSVKGRFTISRDNSKNTLYLQMNSLRPEDTAVYYCTIGGSLSRSSQGTLVTVSSA
notes: produced in P. pastoris X33; also called A00790105-9GS-Alb23-A
